These results are taken from US20250122303A1, “TREATMENT AND PREVENTION OF CANCER USING HER3 ANTIGEN-BINDING MOLECULES” (Hummingbird Bioscience Pte. Ltd., priority 2021, published 2025).

Data set [1] deals with T1, human HER3 (HEK293 HER3 O/E cells) (Homo sapiens, UniProt P21860).
T1 construct: expressed in transfected cells; host or cells: HEK293
In words: Cell surface antigen-binding by flow cytometry. The protocol:
The cells were washed thrice with FACS buffer (PBS with 5 mM EDTA and 0.5% BSA) and resuspended in FITC-conjugated anti-FC antibody (Invitrogen, USA) for 40 min at 2-8° C. Cells were washed again and resuspended in 200 μL of FACS flow buffer (PBS with 5 mM EDTA) for flow cytometric analysis using MACSQuant 10 (Miltenyi Biotec, Germany). After acquisition, all raw data were analyzed using Flowlogic software. Cells were gated using forward and side scatter profile percentage of positive cells was determined for native and overexpressing cell populations.
The cells were washed with buffer (PBS with 2 mM EDTA and 0.5% BSA) and resuspended in FITC-conjugated anti-FC antibody (Invitrogen, USA) at 10 μg/ml for 20 min at 4° C. Cells were washed again and resuspended in 200 μL of FACS flow buffer (PBS with 5 mM EDTA) for flow cytometric analysis using MACSQuant 10 (Miltenyi Biotec, Germany). Unstained WT and transfected HEK293 cells were included in the analysis as negative controls. After acquisition, all raw data were analyzed using Flowlogic software. Cells were gated using forward and side scatter profile percentage of positive cells was determined for native and overexpressing cell populations.
A general note: A flow cytometer gives signals particle by particle.

The target in the next data set is T2, rat HER3 (Rattus norvegicus, UniProt Q62799).
T2 construct: purchased Sino Biological Inc., China
As to the kind of experiment: ELISA cross-reactivity, rat HER3. The class given is binding. Here is the method: (§1) ELISAs were used to determine the binding specificity of the antibodies. The antibodies were analysed for binding to human HER3 polypeptide, as well as respective mouse, rat and monkey homologues of HER3 (Sino Biological Inc., China). The antibodies were also analysed for their ability to bind to human EGFR and human HER2 (Sino Biological Inc., China).
ELISAs were carried out according to standard protocols. Briefly, 96-well plates (Nunc, Denmark) were coated with 0.1 μg/ml of target polypeptide in phosphate-buffered saline (PBS) for 16 h at 4° C. After blocking for 1 h with 1% BSA in Tris buffer saline (TBS) at room temperature, the anti-HER3 antibody was serially diluted with the highest concentration being 10 μg/ml, and added to the plate. Post 1 h incubation at room temperature, plates were washed three times with TBS containing 0.05% Tween 20 (TBS-T) and were then incubated with a HRP-conjugated anti-His antibody (Life Technologies, Inc., USA) for 1 h at room temperature. After washing, plates were developed with colorimetric detection substrate 3,3′,5,5′-tetramethylbenzidine (Turbo-TMB; Pierce, USA) for 10 min. The reaction was stopped with 2M H2SO4, and OD was measured at 450 nm. […]
A general note: ELISA stands for enzyme-linked immunosorbent assay.

In a further data set the target is T3, human EGFR (Homo sapiens, UniProt P00533).
T3 construct: purchased Sino Biological Inc., China
As to the kind of experiment: ELISA specificity, human EGFR. The class given is binding. The settings on record: antibody up to 10 μg/ml. The protocol: as §1
(§2) ELISAs were carried out according to standard protocols. Briefly, 96-well plates (Nunc, Denmark) were coated with 0.1 μg/ml of target polypeptide in phosphate-buffered saline (PBS) for 16 h at 4° C. After blocking for 1 h with 1% BSA in Tris buffer saline (TBS) at room temperature, the anti-HER3 antibody was serially diluted with the highest concentration being 10 μg/ml, and added to the plate. Post 1 h incubation at room temperature, plates were washed three times with TBS containing 0.05% Tween 20 (TBS-T) and were then incubated with a HRP-conjugated anti-His antibody (Life Technologies, Inc., USA) for 1 h at room temperature. […] The reaction was stopped with 2M H2SO4, and OD was measured at 450 nm.
(§3) The antibodies were analysed for their ability to bind to human HER3 polypeptide as well as human HER1 (EGFR) and human HER2 (Sino Biological Inc., China). […]
(§4) ELISAs were carried out according to standard protocols. […] The reaction was stopped with 2M H2SO4, and OD was measured at 450 nm.

A further data set concerns the target T4, human HER2 (Homo sapiens, UniProt P04626).
T4 construct: purchased Sino Biological Inc., China
In words: ELISA specificity, human HER2. As to conditions: antibody up to 10 μg/ml. The class given is binding. The protocol: as §1, §2, §3, §4

Data set [2] deals with heterodimerisation of HER3 and HER2 (Homo sapiens, UniProt P21860). As to the kind of experiment: ELISA inhibition of HER2-HER3 interaction. As to conditions: Example 4.1: His-tagged HER2 coated, biotinylated HER3. The class given is biochemical. The protocol: The anti-HER3 antibodies were analysed for their ability to inhibit heterodimerisation of HER3 and HER2. Briefly, 96-well plates (Nunc, Denmark) were coated with 0.1 μg/ml His-tagged HER2 protein in PBS for 16 h at 4° C. After blocking for 1 h with 1% BSA in PBS at room temperature, recombinant biotinylated human HER3 protein was added in the presence of different concentrations of anti-HER3 antibody clone 10D1, and pates were incubated for 1 h at room temperature. Plates were subsequently washed three times, and then incubated with HRP-conjugated secondary antibody for 1 h at room temperature. After washing, plates were developed with colorimetric detection substrate 3,3′,5,5′-tetramethylbenzidine (Turbo-TMB; Pierce, USA) for 10 min. The reaction was stopped with 2M H2SO4, and OD was measured at 450 nm.
Plate-based ELISA dimerisation assays were carried out according to standard protocols. Plates were coated with 1 μg/ml HER2-Fc protein. […] Plates were then washed and incubated for 1 hour with secondary anti-HIS HRP antibody. Plates were washed, treated with TMB for 10 mins and the reaction was stopped using 2M H2SO4 stop solution. The absorbance was read at 450 nm.

The test system of the next data set is FaDu cells. As to the kind of experiment: CCK-8 proliferation assay, FaDu. Format: cell-based, human. The settings on record: 5 days. The protocol:
Briefly, N87 and FaDu cells were treated with serially diluted concentrations of anti-HER3 antibody 10D1, starting from 100 μg/ml with a 9-point half log dilution. Cell proliferation was measuring using the CCK-8 proliferation assay (Dojindo, Japan) after a period of 5 days, in accordance with the manufacturer's instructions. Briefly 1× CCK-8 solution was added to each well followed by incubation for 2 h at 37° C. The OD was then measured at 450 nm.
(In general: Formazan colour is commonly taken as a measure of viable cells.)

Data set [3] deals with A549 cell-line derived mouse model of lung adenocarcinoma. In words: A549 cell-line derived xenograft model. Format: in vivo. The settings on record: A549, NCr nude mice, IP biweekly 500 μg, 10 doses.
A short description of data set [4]: Pharmacokinetic analysis in NCr nude mice. As to conditions: 500 μg.
Method: Female NCr nude mice approximately 6-8 weeks old were housed under specific pathogen-free conditions and treated in compliance with the Institutional Animal Care and Use Committee (IACUC) guidelines. 500 μg anti-HER3 antibody was administered and blood was obtained from 3 mice by cardiac puncture at baseline (−2 hr), 0.5 hr, 6 hr, 24 hr, 96 hr, 168 hr and 336 hr after administration. Antibody in the serum was quantified by ELISA.
The parameters for the pharmacokinetic analysis in rats and mice were derived from a non-compartmental model: maximum concentration (Cmax), AUC (0-336 hr), AUC (0-infinity), Half-life (t1/2), Clearance (CL), Volume of distribution at steady state (Vd).
Antibody in the serum was quantified by ELISA.
A single dose PK study was performed in NCr Nude mice (25 mg/kg HMBD-001, IV). A single dose PK study including a range of dose levels (2, 5, 10 and 25 mg/kg HMBD-001, IP) was conducted in A549 tumour bearing mice.

T2 sequence (Q62799 20-1339): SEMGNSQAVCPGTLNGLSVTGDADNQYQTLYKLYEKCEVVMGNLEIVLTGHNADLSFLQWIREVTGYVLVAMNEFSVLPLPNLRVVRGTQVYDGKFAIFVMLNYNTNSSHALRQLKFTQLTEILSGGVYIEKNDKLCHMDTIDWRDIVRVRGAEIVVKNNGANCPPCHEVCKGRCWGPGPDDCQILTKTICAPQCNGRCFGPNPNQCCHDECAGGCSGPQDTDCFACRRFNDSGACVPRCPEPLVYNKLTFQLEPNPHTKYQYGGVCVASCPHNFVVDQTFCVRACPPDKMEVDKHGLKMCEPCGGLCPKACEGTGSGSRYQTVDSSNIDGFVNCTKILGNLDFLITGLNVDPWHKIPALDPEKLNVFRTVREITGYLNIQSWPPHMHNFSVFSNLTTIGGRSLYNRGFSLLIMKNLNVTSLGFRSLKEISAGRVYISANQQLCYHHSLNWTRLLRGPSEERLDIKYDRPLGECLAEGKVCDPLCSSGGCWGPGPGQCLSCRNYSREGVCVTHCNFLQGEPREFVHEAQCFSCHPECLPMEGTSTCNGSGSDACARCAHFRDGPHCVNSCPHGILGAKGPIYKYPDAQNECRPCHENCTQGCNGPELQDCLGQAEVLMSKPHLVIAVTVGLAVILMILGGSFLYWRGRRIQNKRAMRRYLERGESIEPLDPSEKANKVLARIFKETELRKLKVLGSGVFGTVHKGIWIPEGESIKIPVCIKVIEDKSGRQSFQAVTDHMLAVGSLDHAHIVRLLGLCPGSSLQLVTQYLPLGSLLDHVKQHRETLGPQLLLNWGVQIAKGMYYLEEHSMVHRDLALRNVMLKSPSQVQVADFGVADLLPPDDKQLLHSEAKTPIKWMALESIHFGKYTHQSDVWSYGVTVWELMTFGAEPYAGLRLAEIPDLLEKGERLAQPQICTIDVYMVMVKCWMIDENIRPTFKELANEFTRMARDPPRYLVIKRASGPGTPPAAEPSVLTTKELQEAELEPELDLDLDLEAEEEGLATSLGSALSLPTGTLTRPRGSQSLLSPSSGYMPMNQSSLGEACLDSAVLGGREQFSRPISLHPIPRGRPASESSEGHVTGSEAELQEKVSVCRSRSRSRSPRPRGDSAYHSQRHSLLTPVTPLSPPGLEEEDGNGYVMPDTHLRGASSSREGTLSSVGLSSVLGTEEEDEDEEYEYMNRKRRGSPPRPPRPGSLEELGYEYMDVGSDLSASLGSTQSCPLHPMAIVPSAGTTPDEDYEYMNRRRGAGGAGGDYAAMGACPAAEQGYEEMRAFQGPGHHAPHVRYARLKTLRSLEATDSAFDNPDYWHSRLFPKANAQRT

B1: 10D1: anti-HER3 antibody clone, VH SEQ ID NO:24, VL SEQ ID NO:74; [1] of Example 2.2 (antibody, V domains shown)
VH: DVQLQESGPDLVKPSQSLSLTCTVTGYSITSGYSWHWIRQFPGNKLEWMGSIHYSGGTNYNPSLKSRISITRDTSKNQFFLQLNSVTTEDTATYFCARMTTAPRYPFDYWGQGTTLTVSS
VL: DIVMTQSQKFMSTSVGDRVSVTCKASQIVGSNVAWYQQKPGQSPKPLIYSASYRYSGVPDRFTASGSGTDFTLTITNVQSEDLAEYFCQQYSSHPLTFGAGTKLELK
Regarding B1, the “extent of binding to human HER3-expressing cells” value in data set [1] (10 μg/ml antibody) and in data set [1] (20 μg/ml antibody) was “bind to human HER3-expressing cells to a similar extent” throughout. Besides, the “binding / cross-reactivity with rat HER3” value in the data set with rat HER3 is “substantial cross-reactivity”. Besides, the “binding to human EGFR (HER1)” value with human EGFR is listed as “not to bind”. Further, the “binding to human HER2” value in the data set with human HER2 is “not to bind”. In data set [2], the “inhibition of interaction between HER2 and HER3” value was “inhibit interaction between HER2 and HER3 in a dose-dependent fashion”. Besides, in the data set with FaDu cells, the cell proliferation result is reported as “dose-dependent inhibition of cell proliferation”. The “inhibition of tumor growth” value in data set [3] is reported as approximately 91%. This molecule showed a half-life in data set [4] of 16.3 days.

One may read the half-life as how long it takes for the measured level to halve. High values mean slow loss, low ones fast loss.
